The experiment concerns the target T1, Fc-tagged recombinant mouse FGL1 full length (mouse, UniProt Q71KU9 23-314).
T1 sequence (looked up): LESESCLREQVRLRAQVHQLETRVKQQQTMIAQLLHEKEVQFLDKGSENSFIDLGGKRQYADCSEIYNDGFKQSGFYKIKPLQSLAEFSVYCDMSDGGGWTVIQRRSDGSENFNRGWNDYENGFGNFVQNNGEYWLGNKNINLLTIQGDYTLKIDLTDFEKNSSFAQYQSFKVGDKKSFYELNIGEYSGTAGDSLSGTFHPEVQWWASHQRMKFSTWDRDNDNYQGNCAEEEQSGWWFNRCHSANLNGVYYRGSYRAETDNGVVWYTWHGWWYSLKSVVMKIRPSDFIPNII
Nature of the experiment: pull-down.

B1: hBMP6 (ligand, human, UniProt P22004 375-513, looked up)
chain: SASSRRRQQSRNRSTQSQDVARVSSASDYNSSELKTACRKHELYVSFQDLGWQDWIIAPKGYAANYCDGECSFPLNAHMNATNHAIVQTLVHLMNPEYVPKPCCAPTKLNAISVLYFDDNSNVILKKYRNMVVRACGCH
Turning to B1, the binding result is recorded as “binds”.

The record behind these values is doi:10.1101/2023.04.06.535920 (bioRxiv, 2023).
